Target: MT1-MMP cytoplasmic tail peptide (MMP-CTP) (Homo sapiens, Fe(II)-bound)
Assay: ITC

B1: acireductone dioxygenase (Fe-HsARD) (protein)
chain: MVQAWYMDDAPGDPRQPHRPDPGRPVGLEQLRRLGVLYWKLDADKYENDPELEKIRRERNYSWMDIITICKDKLPNYEEKIKMFYEEHLHLDDEIRYILDGSGYFDVRDKEDQWIRIFMEKGDMVTLPAGIYHRFTVDEKNYTKAMRLFVGEPVWTAYNRPADHFEARGQYVKFLAQTA
For B1, the Kd was ~10 µM.

Reference: article PMC7768908 (2020)
